{"source": "the DeepSol protein solubility set", "data": [{"experiment": "soluble on expression in E. coli; label from the status in PepcDB or PDB records", "values": [{"sequence": "MAIQTVSTKPFANQKPGTSGLRNKVIAFQQPRYLENFVQSIFNSLDDIEGKTLVVGGDGRYYNDVAIQIIVRMAAANGFAKIIVGQNGIFSTPAVSCVIRKYEAFGGIVLSASHNPGGPKGDFGIKYNVSNGGPAPEKITDRIFSETKKINQYFISDAAKESVDLDKLGTYKIENTTVEVINSVIDYAELMQQIFDFDKVRELFAKGFKVRFDSMCAVSGPYAKYIFETLLKAPAGTVVNAQPLEDFGGFHPDPNPVNAEDLVKHMRSGKYDFGAASDGDADRNMIVGKQIDVSPSDSLAIMAANAHLIPVYSKGIKGVARSMPTSTAVDRVAESLRLPCFETPTGWKFFGNLLDAEKITLCGEESYGTGSNHIREKDGVWAVLFWLNLVAVTGKQVDQLVEEHWQKFGRNFYSRHDYEAIDTAIANSIIDSLRERLSSLVGAQLNDEKVAKADDFSYIDPIDGLVSNHQGIRIIFEDGSRIVFRLSGTGTQGATLRIYLEKYESDSSKFSIPTQQALASLIEIAEDLTNIKSLTGMTEPTVVT", "soluble on expression in E. coli": "not soluble"}, {"sequence": "MHVTLVEINVHEDKVDEFIEVFRQNHLGSVQEEGNLRFDVLQDPEVNSRFYIYEAYKDEDAVAFHKTTPHYKTCVAKLESLMTGPRKKRLFNGLMP", "soluble on expression in E. coli": "soluble"}, {"sequence": "MGSDKIHHHHHHMHRFKYDHPLDDGVRRRVMEELAALERRHHVRVLYACESGSRAWGFASPDSDYDVRFLYVHRPQWYLQVEPQRDVIELPLDDELDISGWELRKALQLLNRSNPTMFEWLQSPLVYRADEKAAAALRELMADFHSLGRCRWHYLSMARKNHRVHLQGETVRLKKYLYVLRPLLAVRWLDAGKGLPPMRFADLAAATVEDDGLAAEINHLLAIKMAAGEAQLGGRLPKLDAFIASMLAEPVPPLPGRHDGDVRRLDRLLQEWVMGSVREDGSAACEI", "soluble on expression in E. coli": "not soluble"}, {"sequence": "GMTQHLTIAQTYLAAWNEEDNERRRHLVGQAWAENTRYVDPLMQGEGQQGIAAMIEAARQKFPGYRFVLAGTPDGHGNFTRFSWRLISPDGDDVAGGTDVVSLNTEGRIDNVVGFLDGAVS", "soluble on expression in E. coli": "soluble"}, {"sequence": "GPGSMPVEREVITLAFGNYSSLVAAQWANGTSHYDAHHSTLYSECRSADVLGGGSSGNGRVRVPRLLLLDAPYASAFDDIDVWARKYKDDAKIGEEGDAAYNPSEASPSPVHRGDATEEKDHLFASVVKAVQRHVFEQHGLDDDDSHGGNDDAGGADDAQNDDGEDADAHLLDEDEEDDVSKNAGRRGSATIPHSRAQRQARLKRKLFDEHNTTIPWWQYITTGLGPNSVTSVKPLQHVDAAGDLPALHSFGYGLAYLRDGGRSSEVVDLNDALRRNLEAADQLQGIQCFTDGDGLFGGAAANVLEQLWEDAGPKTPVVQACSFARLPALVADPAYRAEVAFRERRMDEVALNQLLATLHLSRHTSAVYIPVPLSDWDVLFKGAATAASPTEAPPWLQDERATAQLLAAVIDTALYGLRDGSRASGVSSQGPQWYMDEWCRVVRPAPSLRVAAAMGALPQSVSASSELWEFLQANPLLPDAPQLDERMVRANDSAEDDASSGQARQQAKFFPLTHTMSTYSTAHTAGQVLGHVASLRGAGCLPATVYPAREAMLRYALPLRTSTYLPLVTEVSYPISDTFPTELLFADPAAMAKVPGGASGSGGSEGITSLRRVLQSVDVGAHVLSTYATAPMLHDISTKAQAALRNKMDRYCDAYVMEKDDWREALDEGLALFDDYNHAPLSDAQDGGGSDGDDY", "soluble on expression in E. coli": "not soluble"}, {"sequence": "MVKAGKKVKGASKVRENETEEEKKIRLEMEALAADEAERKAQEAARVALRERQLREQRYAHLNGIKIHNQWRKIMRMAKVEELRREIEILSQNHEREVDRKDAIMQMLDRDLEEAEEQYSLAVRSHMLVVDNLLDLQYQRMRALEAEFAADLKALEDEFETERTEIVNAHTRQRKDMGDMIAAMEGEFADAEAELRQEYEAQREEIKNRNSEEYNVLKIQLEGIIEELEKSFELAHRAYLESTEHRTNTFRTLTKDDAKAALKIERQMRKLVRLQEALQHWRTKIATNGREWEERNRALRNEKEIMARHYAKLKSSMDAFRAGQAERLKQLSLASSGAMETLRGKLAVAENVLKLAELARKYETEQEKVLPFWNPAQAVPSGEQGDEEAAAQAEAEAAALEPSVAELGELGLRASMPEDSSKEAPGPSKSSAGPGKPKFSSYGLDPSSGSEVDEWDYLNCFFRRYNKALLDKTAIDKEKSRLERENADLRSILKQYLDGISVNDDVLNNPVNPLLVVNNRLQITLTERNKARAAAMAQRAAAATGAGLSVTGQGAGGGGQKQLVEVQVVSRVS", "soluble on expression in E. coli": "not soluble"}, {"sequence": "MGSDKIHHHHHHMINSTFLTNRVFSTWYYFSLLLYKEKGCDLVKTPKIVVLGAGYGGMITTVRLQKALSVNEAEITLVNNNSYHYQATWLHESAAGTLQDEKICLDIQDVIDTNKVNFVQDTVVEIKAAEKRIILKDGELEYDYLVIGLGFESETFGITGLKEHAFSIANINATRQIREHMEASFAKYADEKRDELVTIVVGGAGFTGIEYVGELANRVPELCKQYNVPREKARIICVEAAPTALPGFDPALVEYAVKQLEKKGVEFRIGTAIKEATEEGIIVANGDDTELIKSETVVWAAGVRGNGIVEESGFEAMRGRVKVDEYMHAPGYEDVFMVGDAALIINEEINRPYPPTAQIAIQQGYNIAHNLTVLVRGKGEMKKFVFDNKGSVCSLGHDDAMGVVMGKKLTGWKASFMKKVIDNRYLFLLGGPLLVLKKGKLKFF", "soluble on expression in E. coli": "not soluble"}, {"sequence": "AVREEIAGALYLGHSEGVVEKEDRDRILGALDLAERTVEEIMLHRSNIVMLDADAEPETILEHCLQSPHTRLPVYRGEPENIIGVVHAKDLFRAMYAQVGGSEGHTARLKDFDISRVANAPYFVPETTTLDDQMRAFLRMRSHFALVVDEYGSLRGLITLEDILEEIVGEIT", "soluble on expression in E. coli": "not soluble"}, {"sequence": "ETIELYKSSVPSGKEAGKNALAITNQQLISALENAAKDNKTSQPQARSLTASDQVQITQSSDKVIGYITTSNLDIDNNNTFDVGKLNGDKSTSKIIVNATLKTLNKINTLQSEEGIILPHPQKYKSTDPQAVATVQGPSIIGVHANAKENAETQKFINW", "soluble on expression in E. coli": "not soluble"}, {"sequence": "MKNNKVLVVVGPTAVGKTALGIDLAIKFNGEIISGDSQQVYQGLDIGTAKVTMAEQAQVPHHLIDVRKWTENFSVHDFVIEANQLIKEILDQGKVPIIVGGTGLYIQSLIEGYHLGGQENHEEMMKLREELSLLSDEELFAKVIKINPDISELNRRRAIRFLELQTFGSQDENLGSDYDFLLIGLNADRKVLYDRINQRVDQMMREGLLDEARTLYEQAPEVQAAKGIGYKEFFPYFSGDISLEEAVELVKRNSRRYAKRQLTWFKNRMSVEFEDVFSKNYPEPIFDKVTQFLNLEHHHHHH", "soluble on expression in E. coli": "not soluble"}, {"sequence": "MKKLVTATTLTAGIGAAIVGLDHGNEADAAEQTQPTNQSTTQSTSGSSANLYTAGQCTWYVYDKVGGNIGSTWGNANNWASAASSAGYTVNNSPEAGSILQSTAGGYGHVAYVENVNSDGSVEVSEMNYNGGPFSVSERTISAGEASSYNYIHLNLEHHHHHH", "soluble on expression in E. coli": "soluble"}, {"sequence": "MNANVYQHFRKDEHPFIDTVGDWLEQVEMQYAPYLTDFLDPRQAYILETLIRQNSDLSFTFYGGYEQAERKRCLIYPAYYIPEETDFGVVLFEIIYPSKFATLSHGKILGTLMNVGVRREAFGDIISDGDKWQVFIAQEVAGFVVNQVDKIGKITVRLEERDYTQILIPKDGWQEERTTMSSLRLDSVISAVFNISRQRSKQLIESGKVKVNWTETTRPDFALDLLDIVSIRGFGRLQIQELEGKTKKEKFRVLLGVLRK", "soluble on expression in E. coli": "not soluble"}, {"sequence": "MSSPGGETSTKQQQELKAQIKIGHYILKETLGVGTFGKVKVGIHETTQYKVAVKILNRQKIKSLDVVGKIRREIQNLSLFRHPHIIRLYQVISTPSDIFMIMEHVSGGELFDYIVKHGRLKTAEARRFFQQIISGVDYCHRHMVVHRDLKPENLLLDEQNNVKIADFGLSNIMTDGDFLRTSCGSPNYAAPEVISGKLYAGPEVDVWSCGVILYALLCGTLPFDDEHVPSLFRKIKSGVFPTPDFLERPIVNLLHHMLCVDPMKRATIKDVIAHEWFQKDLPNYLFPPINESEASIVDIEAVREVTERYHVAEEEVTSALLGDDPHHHLSIAYNLIVDNKRIADETAKLSIEEFYQVTPNKGPGPVHRHPERIAASVSSKITPTLDNTEASGANRNKRAKWHLGIRSQSRPEDIMFEVFRAMKQLDMEWKVLNPYHVIVRRKPDAPAADPPKMSLQLYQVDQRSYLLDFKSLADEESGSASASSSRHASMSMPQKPAGIRGTRTSSMPQAMSMEASIEKMEVHDFSDMSCDVTPPPSPGGAKLSQTMQFFEICAALIGTLAR", "soluble on expression in E. coli": "not soluble"}, {"sequence": "MIMSEMITRQQVTSGETIHVRTDPTACIGSHPNCRMFIDSLTIAGEKLDKNIVAIDGGEDVTKADSATAAASVIRMSITPGSINPTISITLGVLIKSNVRTKIEEKVSSILQASATDMKIKLGNSNKKQEYKTDEAWGIMIDLSNLELYPISAKAFSISIEPTELMGVSKDGMRYHIISIDGLTTSQGSLPVCCAASTDKGVAKIGYIAAA", "soluble on expression in E. coli": "soluble"}, {"sequence": "MGSDKIHHHHHHMAKIFDIKYGNDEKQKLDLYLQDSVAPLVFYTHGGGWWQGDKRKDTKIFDSLFSAGFSVASVNYRLADKNNPYPAQLDDCHSALTFLQQSDYKFRKDKIALLGASSGANISVSLSIETGYPTVSWSGQFDFKGFLKTHTAITGRKAVDNPDPDKGSRQQSYYKWLLEKLFNGDLSRVGEATLQHKITSKTGPVLLINSAAELAPVMEVYKMQEAYLENGIEVDTIIFPGDRHALGYADDALKPTIDFLETHLQ", "soluble on expression in E. coli": "not soluble"}, {"sequence": "MHRGGQPLKKRRGSFKMAELDQLPDESSSAKALVSLKEGSLSNTWNEKYSSLQKTPVWKGRNTSSAVEMPFRNSKRSRLFSDEDDRQINTRSPKRNQRVAMVPQKFTATMSTPDKKASQKIGFRLRNLLKLPKAHKWCIYEWFYSNIDKPLFEGDNDFCVCLKESFPNLKTRKLTRVEWGKIRRLMGKPRRCSSAFFEEERSALKQKRQKIRLLQQRKVADVSQFKDLPDEIPLPLVIGTKVTARLRGVHDGLFTGQIDAVDTLNATYRVTFDRTGLGTHTIPDYEVLSNEPHETMPIAAFGQKQRPSRFFMTPPRLHYTPPLQSPIIDNDPLLGQSPWRSKISGSDTETLGGFPVEFLIQVTRLSKILMIKKEHIKKLREMNTEAEKLKSYSMPISIEFQRRYATIVLELEQLNKDLNKVLHKVQQYCYELAPDQGLQPADQPTDMRRRCEEEAQEIVRHANSSTGQPCVENENLTDLISRLTAILLQIKCLAEGGDLNSFEFKSLTDSLNDIKSTIDASNISCFQNNVEIHVAHIQSGLSQMGNLHAFAANNTNRD", "soluble on expression in E. coli": "soluble"}, {"sequence": "MAHHHHHHMAACRSTPLTSSPVACEQAHRQPTIVDRDYEASKYWKSHRCRRIPKATGLTAVLITNPGLSVFTHQPHSRTNTVQGRKSCQGQQTTGRQLQISGNRAVADSVPRSQKNSVTAAWSV", "soluble on expression in E. coli": "not soluble"}, {"sequence": "MKYFLPLDVSLASAYLKATMSFKDPPTLQQLARRSLLKDEALTISALLNLPVQLFPPLFKDAFTSRQRKILSLMVAAWPFPVLPVGALGGIDHLETLKAVLDGLDLLMSQKDRPRWNLQVLDLGNAHQDFWDGWAGLLHEVCSQDVFGKNQPVGNHPIPGGKQTITIKMNLSLKYCRHSKYLNYLHWWAEQRKDGIQVICEKLEFTGPHSSIQELAIKSIHWDIYNLALIASCLGQMKNLQKLILMNIRRPPDLADLQEAHIVTEIFSEFSKLHKVHYLHVNNVYFLKERLDQMLRCFERPLETLAITHCRLSELDMRYLSQCPSIHQLKYLDMSYTTFKPSSHRFLGSLLERLTATLQTLKLECFHLTDFQIRDLLPGLSQCSQLTEVDIAMNEFSVVSLKKLLKHTANLTQLTLEKYPAPVEVYDDGHSVISDRFVQLCSELMNTLKGVRQAKQVYFVSMPCLRNYEFLIYNLKGLDSSEQLRRRGLSWALINGEQVSRDSLQL", "soluble on expression in E. coli": "not soluble"}, {"sequence": "MTTHQVKKSEAKRQHILDSGFHLVLRKGFVGVGLQEILKTSGVPKGSFYHYFESKEAFGCELLKHYISDYQIRLNQLWTTETSARDKLMNYLQCWVKDPATEQSWAESCLIVKMAAEVADLSEDMRLIMNDGVKRLIARMADLIRIGQQEGSIQTSVVPDVLAQVIYQMYLGAALLSKLYKHKAPLFQALESTKMMLDGCNHVQQDKNQ", "soluble on expression in E. coli": "soluble"}]}]}
